Assay results published in patent US6897291B1, “pH sensitive potassium channel in spermatocytes” (Icagen, Incorporated, priority 1997, dated 2005).

Assays:
[1] = molecular target: T1, mSlo3 (Mus musculus, UniProt O54982, V141G); assay: mSlo3 currents expressed in Xenopus oocytes, electrophysiology; format: cell-based
T1 construct: A full-length mSlo3 cDNA was cloned into pBSC-MXT; expressed in transfected cells; host or cells: Xenopus oocytes (cRNA injection)
T1 sequence (O54982 with tags, fused parts or gaps V141G limits assumed): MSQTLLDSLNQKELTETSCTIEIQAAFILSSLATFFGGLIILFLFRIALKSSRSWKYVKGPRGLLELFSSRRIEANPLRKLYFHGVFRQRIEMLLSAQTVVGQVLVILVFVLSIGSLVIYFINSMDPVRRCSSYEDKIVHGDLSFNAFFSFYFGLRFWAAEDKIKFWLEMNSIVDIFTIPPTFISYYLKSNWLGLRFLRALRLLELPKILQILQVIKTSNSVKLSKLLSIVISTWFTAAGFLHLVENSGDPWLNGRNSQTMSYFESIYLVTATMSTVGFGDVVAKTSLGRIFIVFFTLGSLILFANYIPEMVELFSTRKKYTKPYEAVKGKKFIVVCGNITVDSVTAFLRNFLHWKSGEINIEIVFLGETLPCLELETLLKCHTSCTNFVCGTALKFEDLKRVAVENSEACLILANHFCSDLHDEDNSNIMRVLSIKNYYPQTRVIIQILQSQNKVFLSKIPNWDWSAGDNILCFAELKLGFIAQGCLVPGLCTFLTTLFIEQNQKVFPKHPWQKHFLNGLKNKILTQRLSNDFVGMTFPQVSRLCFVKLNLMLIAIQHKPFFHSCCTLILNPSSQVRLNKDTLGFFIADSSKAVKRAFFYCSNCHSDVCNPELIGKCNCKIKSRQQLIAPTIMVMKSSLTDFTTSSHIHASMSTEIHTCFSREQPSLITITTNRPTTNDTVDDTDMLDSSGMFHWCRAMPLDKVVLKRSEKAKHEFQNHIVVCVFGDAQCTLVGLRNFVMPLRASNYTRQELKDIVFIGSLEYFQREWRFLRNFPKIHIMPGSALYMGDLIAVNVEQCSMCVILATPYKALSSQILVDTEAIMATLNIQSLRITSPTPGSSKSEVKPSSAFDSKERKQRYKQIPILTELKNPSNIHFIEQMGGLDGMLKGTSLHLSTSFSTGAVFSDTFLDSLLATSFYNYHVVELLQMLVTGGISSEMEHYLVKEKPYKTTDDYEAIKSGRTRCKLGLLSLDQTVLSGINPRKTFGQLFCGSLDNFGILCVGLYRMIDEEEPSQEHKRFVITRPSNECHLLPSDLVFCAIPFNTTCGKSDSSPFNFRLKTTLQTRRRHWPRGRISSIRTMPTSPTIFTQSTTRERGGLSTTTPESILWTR
Procedure: A full-length mSlo3 cDNA was cloned into pBSC-MXT, a Bluescript-derived plasmid (Stratagene) containing Xenopus β-globin 5′ and 3′ untranslated sequences. cDNA expression constructs were linearized at a unique Not-I site, and capped cRNA was synthesized using the mMessage mMachine (Ambion). Reactions were precipitated with LiCl to remove the DNA template and resuspended in nuclease-free water at a final concentration of approximately 1 mg/ml. Oocytes were prepared for injection as previously described (Wei et al., Science 248:599-603 (1990)), except for the use of a Drummond nanojector. Approximately 50 nl of RNA in nuclease-free water was injected into each oocyte. Oocytes were incubated in ND96 medium (Wei et al., 1994, supra) and analyzed 1-8 days after injection.
cRNA (40 nl at approximately […]) was injected into mature Xenopus oocytes; recordings were made 1-8 days later. For whole cell-recording, medium nd96 (concentrations in mM; 96 NaCl, 2 KCl, 1.8 CaCl2, 1 MgCl2, 5 HEPES, pH 7.5) supplemented with 1 mM DIDS (to block endogenous chloride currents) employed as bath solution, or modified as noted in figure legends. Patches were perfused with either 0 Ca^2+ EGTA solutions (160 K gluconate, 34 KOH, 10 HEPES, and 10 EGTA) or Ca^2+-containing (184 K gluconate, 10 KOH, 10 HEPES, 200 mM hemicalcium gluconate) solutions. HCl was used to adjust pH. Pipet solution contained 0.5 K gluconate, 0.5 KCl, 1.1 KOH, 10 HEPES, 159 Na gluconate, and 2 hemiMg gluconate, pH 7.1. Recording. Two-electrode voltage clamp was carried out with a TEV-200 amplifier (Dagan). Patch currents were recorded on either an Axopatch 1B or 200A amplifier (Axon), and digitized at either 3.4, 5 or 10 kHz. Data acquisition and analysis programs were CCURRENT and CQUANT (Dr. Keith Baker) or pClamp6 (Axon). Recordings were made at room temperature except tail currents which were recorded at 11° C. using a Peltier device (Cambion).

[2] = molecular target: mSlo1 (Mus musculus, UniProt Q08460); conditions: mSlo1, comparison value; read-out: EC50 (sensitivity to TEA); cited from earlier work
mSlo1, sequence (Q08460 whole entry): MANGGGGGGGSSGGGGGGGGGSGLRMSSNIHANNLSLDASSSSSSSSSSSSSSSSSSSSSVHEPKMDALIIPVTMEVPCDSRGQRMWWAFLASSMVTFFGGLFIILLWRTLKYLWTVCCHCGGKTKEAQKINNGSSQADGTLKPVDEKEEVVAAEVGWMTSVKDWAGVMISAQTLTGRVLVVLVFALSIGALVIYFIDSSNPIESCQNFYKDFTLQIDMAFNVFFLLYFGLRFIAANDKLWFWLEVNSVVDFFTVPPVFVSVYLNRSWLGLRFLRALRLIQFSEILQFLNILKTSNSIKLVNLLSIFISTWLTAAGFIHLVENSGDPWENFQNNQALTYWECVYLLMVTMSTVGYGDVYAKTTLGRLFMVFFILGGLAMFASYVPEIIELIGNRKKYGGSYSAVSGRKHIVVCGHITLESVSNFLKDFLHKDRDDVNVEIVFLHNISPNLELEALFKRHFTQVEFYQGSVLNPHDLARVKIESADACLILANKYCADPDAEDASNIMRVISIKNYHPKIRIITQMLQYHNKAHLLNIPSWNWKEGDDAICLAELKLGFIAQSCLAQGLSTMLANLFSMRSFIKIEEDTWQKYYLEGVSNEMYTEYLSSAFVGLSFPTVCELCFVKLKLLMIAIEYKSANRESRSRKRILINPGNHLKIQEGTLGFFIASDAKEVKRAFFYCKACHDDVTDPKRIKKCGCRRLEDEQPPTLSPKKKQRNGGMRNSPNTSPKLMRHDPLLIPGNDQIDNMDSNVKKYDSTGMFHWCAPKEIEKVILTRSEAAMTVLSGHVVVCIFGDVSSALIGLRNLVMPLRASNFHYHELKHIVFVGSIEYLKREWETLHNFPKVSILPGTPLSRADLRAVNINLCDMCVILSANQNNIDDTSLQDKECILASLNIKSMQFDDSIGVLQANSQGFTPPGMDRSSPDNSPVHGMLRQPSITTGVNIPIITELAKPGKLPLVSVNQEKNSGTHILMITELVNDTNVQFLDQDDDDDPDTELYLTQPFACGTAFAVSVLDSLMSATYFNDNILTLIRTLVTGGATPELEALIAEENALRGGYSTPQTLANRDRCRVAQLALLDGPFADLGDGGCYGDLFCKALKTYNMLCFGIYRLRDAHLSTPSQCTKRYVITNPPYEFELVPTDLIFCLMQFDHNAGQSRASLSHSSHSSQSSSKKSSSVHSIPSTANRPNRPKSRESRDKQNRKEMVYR

## charybdotoxin
[1]; charybdotoxin 50 nM
  effect on mSlo3 currents: did not affect

## CC[N+](CC)(CC)CC [TEA]
[2]
  EC50: < 0.2 mM
[1]; mSlo3 expressed in Xenopus oocytes, read-out: EC50 (sensitivity to TEA)
  EC50: ~100 mM

## iberiotoxin (QFTDVDCSVSKECWSVCKDLFGVDRGKCMGKKCRCYQ)
[1]; iberiotoxin 20 nM
  effect on mSlo3 currents: did not affect
